Experimental findings from US20220251236A1 (Boehringer Ingelheim, published 2022) are described below.

The target in one assay is T1, T CELLS (human, UniProt P07766;P09693).
T1 construct: native, on the surface of purified human T cells; The sheets print only 'T CELLS'; also called human CD3 on purified human T cells; CD3 epsilon/gamma complex
The assay can be described thus: flow cytometry titration on purified human T cells, PE anti-human secondary, x-fold over background. From the text: (§1) Cells (T cells or human SCLC cells) were stained with increasing concentrations of two-step purified DLL3/CD3 binding proteins with increasing concentrations in FACS buffer (PBS/0.5% BSA/0.05% sodium azide). Bound molecules were detected with PE-conjugated anti-human secondary antibody (Sigma-Aldrich, #P8047).
(In general: In flow cytometry, cells or beads pass a laser one at a time.)

A further assay has as its target T2, EGF1+2.
T2 construct: also called Hu DLL3 EGF1+2 on HEK293 cells
T2 membrane-anchored DLL3 subdomain construct: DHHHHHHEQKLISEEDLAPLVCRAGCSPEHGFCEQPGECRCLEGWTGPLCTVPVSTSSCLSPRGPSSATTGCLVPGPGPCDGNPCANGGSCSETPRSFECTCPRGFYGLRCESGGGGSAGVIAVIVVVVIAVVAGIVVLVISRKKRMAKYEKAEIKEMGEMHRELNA
The assay can be described thus: flow cytometry on HEK293 cells expressing the DLL3 subdomain construct, 1.6 nM binder, PE anti-human secondary, control: secondary antibody only. Put shortly: (§2)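 Binders tested on HEK293 cells displaying the DLL3 subdomain construct; bound molecules detected by flow cytometry using PE-conjugated anti-human secondary antibody. Negative control: cells with secondary antibody only.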

Assay [1] addresses T3, human DLL3 (endogenous, on SCLC cell lines NCI-H82 and SHP77 and in SCLC tissue) (human, UniProt Q9NYJ7 27-618).
T3 construct: whole, on cells; also called SCLC cell lines expressing DLL3
T3 sequence (looked up): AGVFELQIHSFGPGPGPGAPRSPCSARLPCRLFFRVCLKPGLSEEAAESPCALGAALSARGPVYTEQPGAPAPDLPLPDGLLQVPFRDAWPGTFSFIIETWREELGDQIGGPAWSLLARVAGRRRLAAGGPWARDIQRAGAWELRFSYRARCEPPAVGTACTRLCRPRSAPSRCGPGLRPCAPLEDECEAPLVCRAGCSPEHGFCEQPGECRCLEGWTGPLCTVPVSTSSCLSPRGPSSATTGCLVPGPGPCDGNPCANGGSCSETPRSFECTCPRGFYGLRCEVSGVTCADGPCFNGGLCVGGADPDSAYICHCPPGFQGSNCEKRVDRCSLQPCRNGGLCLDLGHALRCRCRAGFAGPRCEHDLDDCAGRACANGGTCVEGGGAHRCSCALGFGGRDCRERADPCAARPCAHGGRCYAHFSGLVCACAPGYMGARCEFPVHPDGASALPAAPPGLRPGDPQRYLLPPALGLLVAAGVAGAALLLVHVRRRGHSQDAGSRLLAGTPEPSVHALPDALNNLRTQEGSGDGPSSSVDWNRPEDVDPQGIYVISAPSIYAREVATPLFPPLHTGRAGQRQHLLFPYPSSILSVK
The experiment in a line: flow cytometry titration on NCI-H82 cells, PE anti-human secondary, x-fold over background.
Excerpt: as §1

For a further assay, the target named is T4, EGF3+4.
T4 construct: also called Hu DLL3 EGF3+4 on HEK293 cells
T4 membrane-anchored DLL3 subdomain construct: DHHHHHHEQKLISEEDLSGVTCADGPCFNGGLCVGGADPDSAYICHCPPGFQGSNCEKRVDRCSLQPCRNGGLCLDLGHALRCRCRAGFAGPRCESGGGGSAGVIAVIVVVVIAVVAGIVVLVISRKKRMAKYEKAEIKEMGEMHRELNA
The assay can be described thus: flow cytometry on HEK293 cells expressing the DLL3 subdomain construct, 1.6 nM binder, PE anti-human secondary, control: secondary antibody only. Put shortly: as §2

The target of another assay is T5, Human DLL3-His (human, UniProt Q9NYJ7 27-492).
T5 construct: also called huDLL3-His; hu DLL3
T5 sequence: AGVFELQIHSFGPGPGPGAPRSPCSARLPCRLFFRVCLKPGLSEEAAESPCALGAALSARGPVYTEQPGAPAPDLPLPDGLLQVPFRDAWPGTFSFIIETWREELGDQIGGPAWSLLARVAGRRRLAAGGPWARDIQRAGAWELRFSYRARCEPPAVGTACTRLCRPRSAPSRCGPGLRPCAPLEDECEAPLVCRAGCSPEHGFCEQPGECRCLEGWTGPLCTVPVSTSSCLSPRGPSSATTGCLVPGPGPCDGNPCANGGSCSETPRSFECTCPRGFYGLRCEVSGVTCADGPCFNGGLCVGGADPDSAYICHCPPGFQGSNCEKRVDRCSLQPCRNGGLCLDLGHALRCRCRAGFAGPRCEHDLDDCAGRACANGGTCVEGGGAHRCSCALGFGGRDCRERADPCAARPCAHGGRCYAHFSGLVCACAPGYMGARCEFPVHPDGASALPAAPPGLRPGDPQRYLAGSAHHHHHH
The assay can be described thus: SPR (ProteOn XPR36), bispecific captured on protein A/G, DLL3 as analyte, Example 4A.

Numbering of substitutions follows the chain as printed.

T1 sequence (P07766 23-207, chain 1 of 2): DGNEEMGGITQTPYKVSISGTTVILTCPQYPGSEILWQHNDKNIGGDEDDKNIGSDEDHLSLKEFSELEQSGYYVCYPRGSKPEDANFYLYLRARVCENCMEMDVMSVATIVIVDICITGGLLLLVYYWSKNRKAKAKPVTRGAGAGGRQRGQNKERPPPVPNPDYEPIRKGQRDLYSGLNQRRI
T1 sequence (P09693 23-182, chain 2 of 2): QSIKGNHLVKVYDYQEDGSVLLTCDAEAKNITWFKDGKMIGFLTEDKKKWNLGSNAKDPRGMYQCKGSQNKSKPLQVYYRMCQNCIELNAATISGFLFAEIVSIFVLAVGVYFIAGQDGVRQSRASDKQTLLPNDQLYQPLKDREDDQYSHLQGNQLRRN

B1: DLL3#2/CD3#1 (bispecific antibody, human IgG1, kappa, lambda, L234A L235A)
chain 1: DIQMTQSPSAMSASVGDRVTITCRASQGISNYLAWFQQKPGKVPEPLIYAASSLQSGVPSRFSGSGSVTEFTLTISSLQPEDFATYYCLQHNSSPYTFGQGTKLEIKRTVAAPSVFIFPPSDEQLKSGTASVVCLLNNFYPREAKVQWKVDNALQSGNSQESVTEQDSKDSTYSLSSTLTLSKADYEKHKVYACEVTHQGLSSPVTKSFNRGECGGGGSEGKSSGSGSESKSTEGKSSGSGSESKSTGGGGSQVQLVQSGAEVKKPGASVKVSCKASGYTFTSYYMHWVRQAPGQGLEWMGIINPSGGSTSYAQKFQGRVTMTRDTSTSTVYMELSSLRSEDTAVYYCARGEAVGGNYYYYGMDVWGQGTTVTVSSASTKGPSVFPLAPSSKSTSGGTAALGCLVKDYFPEPVTVSWNSGALTSGVHTFPAVLQSSGLYSLSSVVTVPSSSLGTQTYICNVNHKPSNTKVDKRVEPKSCDKTHTCPPCPAPEAAGGPSVFLFPPKPKDTLMISRTPEVTCVVVDVSHEDPEVKFNWYVDGVEVHNAKTKPREEQYNSTYRVVSVLTVLHQDWLNGKEYKCKVSNKALPAPIEKTISKAKGQPREPQVYTLPPSREEMTKNQVSLWCLVKGFYPSDIAVEWESNGQPENNYKTTPPVLDSDGSFFLYSKLTVDKSRWQQGNVFSCSVMHEALHNHYTQKSLSLSPG
chain 2: EAVVTQEPSLTVSPGGTVTLTCRSSTGAVTTSNYANWVQEKPGQLPRGLIGGTNKRAPWVPARFSGSLLGGKAALTLSGAQPEDEAEYFCALWYSNLWVFGGGTKLTVLGQPKAAPSVTLFPPSSEELQANKATLVCLISDFYPGAVKVAWKADGSPVNTGVETTTPSKQSNNKYAASSYLSLTPEQWKSHRSYSCQVTHEGSTVEKTVAPAECSGGGGSEGKSSGSGSESKSTEGKSSGSGSESKSTGGGGSEVQLVESGGGLVQPGGSLKLSCAASGFTFNTYAMNWVRQAPGKGLEWVARIRSKYNNYATYYADSVKDRFTISRDDSKNTAYLQMNNLKTEDTAVYYCVRHGNFGNSYVSWFAYWGQGTLVTVSAASTKGPSVFPLAPSSKSTSGGTAALGCLVKDYFPEPVTVSWNSGALTSGVHTFPAVLQSSGLYSLSSVVTVPSSSLGTQTYICNVNHKPSNTKVDKRVEPKSCDKTHTCPPCPAPEAAGGPSVFLFPPKPKDTLMISRTPEVTCVVVDVSHEDPEVKFNWYVDGVEVHNAKTKPREEQYNSTYRVVSVLTVLHQDWLNGKEYKCKVSNKALPAPIEKTISKAKGQPREPQVYTLPPSREEMTKNQVSLSCAVKGFYPSDIAVEWESNGQPENNYKTTPPVLDSDGSFFLVSKLTVDKSRWQQGNVFSCSVMHEALHNRFTQKSLSLSPG
notes: Heterodimer of one DLL3 chain and one CD3 chain (scFab-Fc, knob-in-hole)
By EC50 (read off the curve) is commonly meant the concentration that produces a half-maximal response. Higher therefore signals weaker potency. For the molecule B1, the “EC50 (read off the curve)” value with T CELLS is roughly 10 nM.

B2: DLL3#5/CD3#1 (bispecific antibody, human IgG1, kappa, lambda, L234A L235A)
chain 1: not shown
chain 2: B1 chain 2
notes: as for B1
Consider B2, for which, in the assay with EGF1+2, the binding result is reported as “binds”.

B3: DLL3#4/CD3#1 (bispecific antibody, human IgG1, kappa, lambda, L234A L235A)
chain 1: not shown
chain 2: B1 chain 2
notes: as for B1
Turning to B3, the “EC50 (read off the curve)” value in assay [1] was roughly 0.1 nM. Moreover, in the assay with EGF3+4, the binding result is “binds”.

B4: DLL3#3/CD3#2 (bispecific antibody, human IgG1, kappa, lambda, L234A L235A)
chain 1: DIQMTQSPSAMSASVGDRVTITCRASQGISNYLVWFQQKPGKAPKRLIYAVSSLYSGVPSRFSGSGSGTEFTLTISSLQPEDFATYYCLQHDSYPYTFGQGTKLEIKRTVAAPSVFIFPPSDEQLKSGTASVVCLLNNFYPREAKVQWKVDNALQSGNSQESVTEQDSKDSTYSLSSTLTLSKADYEKHKVYACEVTHQGLSSPVTKSFNRGECGGGGSEGKSSGSGSESKSTEGKSSGSGSESKSTGGGGSQVQLVQSGAEVKKPGASVKVSCKASGYTFTSYYVHWVRQAPGQGLEWMVIINPGGGTTSYAQKFLGRVTMTRDTSTNTVYMELKSLRSEDTAVYYCARGEAVTGNYFYYGMDVWGQGTTVTVSSASTKGPSVFPLAPSSKSTSGGTAALGCLVKDYFPEPVTVSWNSGALTSGVHTFPAVLQSSGLYSLSSVVTVPSSSLGTQTYICNVNHKPSNTKVDKRVEPKSCDKTHTCPPCPAPEAAGGPSVFLFPPKPKDTLMISRTPEVTCVVVDVSHEDPEVKFNWYVDGVEVHNAKTKPREEQYNSTYRVVSVLTVLHQDWLNGKEYKCKVSNKALPAPIEKTISKAKGQPREPQVYTLPPSREEMTKNQVSLWCLVKGFYPSDIAVEWESNGQPENNYKTTPPVLDSDGSFFLYSKLTVDKSRWQQGNVFSCSVMHEALHNHYTQKSLSLSPG
chain 2: B1 chain 2 with N309I
notes: as for B1
What is called Kd is the equilibrium constant for the complex coming apart. A low value points to a tighter complex. In the assay with Human DLL3-His, B4 came in with a Kd of less than 0.01 nM.
